Experiment in all cases: FRET or BRET; donor dequenching ECFP:EYFP FRET, confocal; co-transfected 293T cells, fixed with 4% paraformaldehyde 48 h after transfection; no BMP ligand
Settings in all cases: partners not purified
(In general: BRET reads energy transfer from a luciferase to a nearby fluorophore.)

One experiment has as its target T1, ECFP-XIAP (UniProt Q60989 1-496).
T1 construct: also called C-X; source: 293T, co-transfected, in fixed cells; not shown: ECFP, N-terminal, kept

Experiment [1] deals with T2, CFP-NRAGE (full-length NRAGE) (UniProt Q9ES73 1-775).
T2 construct: NRAGE (MAGE-D1), full length; the cloning of this construct is not described; also called C-NR; source: 293T, co-transfected, in fixed cells
T2 sequence (looked up): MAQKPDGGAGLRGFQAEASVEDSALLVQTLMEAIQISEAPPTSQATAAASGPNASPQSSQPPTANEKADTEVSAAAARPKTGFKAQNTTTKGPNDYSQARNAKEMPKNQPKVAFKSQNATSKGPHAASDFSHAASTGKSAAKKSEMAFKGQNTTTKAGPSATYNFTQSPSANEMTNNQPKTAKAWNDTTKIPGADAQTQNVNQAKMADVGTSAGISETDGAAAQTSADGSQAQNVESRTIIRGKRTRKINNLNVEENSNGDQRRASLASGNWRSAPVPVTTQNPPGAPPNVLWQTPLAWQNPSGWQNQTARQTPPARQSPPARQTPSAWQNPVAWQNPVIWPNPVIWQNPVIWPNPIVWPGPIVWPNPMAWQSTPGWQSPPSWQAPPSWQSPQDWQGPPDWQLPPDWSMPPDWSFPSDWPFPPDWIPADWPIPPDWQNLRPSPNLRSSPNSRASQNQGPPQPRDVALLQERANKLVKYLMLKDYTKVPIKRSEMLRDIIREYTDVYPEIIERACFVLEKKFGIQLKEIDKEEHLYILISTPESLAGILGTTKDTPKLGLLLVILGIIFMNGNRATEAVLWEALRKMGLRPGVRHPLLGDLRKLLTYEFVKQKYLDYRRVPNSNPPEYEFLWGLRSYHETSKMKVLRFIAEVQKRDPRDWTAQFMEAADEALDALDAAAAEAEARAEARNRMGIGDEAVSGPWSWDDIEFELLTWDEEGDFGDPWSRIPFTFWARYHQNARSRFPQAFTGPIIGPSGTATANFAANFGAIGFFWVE

Another experiment has as its target T3, EYFP-XIAP (UniProt Q60989 1-496).
T3 construct: also called Y-X; source: 293T, co-transfected, in fixed cells; not shown: EYFP, N-terminal, kept

Experiment [2] concerns the target T4, YFP-NRAGE (full-length NRAGE) (UniProt Q9ES73 1-775).
T4 construct: NRAGE (MAGE-D1), full length; the cloning of this construct is not described; also called Y-NR; source: 293T, co-transfected, in fixed cells
T4 sequence (looked up): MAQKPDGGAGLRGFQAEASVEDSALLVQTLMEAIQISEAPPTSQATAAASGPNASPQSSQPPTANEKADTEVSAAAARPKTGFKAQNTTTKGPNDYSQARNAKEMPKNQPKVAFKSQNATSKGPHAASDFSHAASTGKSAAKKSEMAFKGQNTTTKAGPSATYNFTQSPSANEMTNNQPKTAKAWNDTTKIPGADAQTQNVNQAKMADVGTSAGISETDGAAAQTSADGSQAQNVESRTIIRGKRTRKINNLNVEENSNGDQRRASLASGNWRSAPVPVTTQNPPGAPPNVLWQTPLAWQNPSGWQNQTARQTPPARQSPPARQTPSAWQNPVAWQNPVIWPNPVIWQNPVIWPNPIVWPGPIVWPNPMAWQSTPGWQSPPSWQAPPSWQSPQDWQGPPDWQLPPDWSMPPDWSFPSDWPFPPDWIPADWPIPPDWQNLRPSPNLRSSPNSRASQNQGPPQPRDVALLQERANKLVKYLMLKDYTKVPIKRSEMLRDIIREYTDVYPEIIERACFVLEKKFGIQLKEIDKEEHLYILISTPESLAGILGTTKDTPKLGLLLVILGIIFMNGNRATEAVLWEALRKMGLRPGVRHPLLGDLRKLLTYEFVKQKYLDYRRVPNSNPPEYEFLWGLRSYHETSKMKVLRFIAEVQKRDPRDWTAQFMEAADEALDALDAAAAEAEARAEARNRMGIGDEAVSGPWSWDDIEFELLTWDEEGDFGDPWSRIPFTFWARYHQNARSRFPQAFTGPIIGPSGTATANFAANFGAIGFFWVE

T1 sequence (Q60989 whole entry): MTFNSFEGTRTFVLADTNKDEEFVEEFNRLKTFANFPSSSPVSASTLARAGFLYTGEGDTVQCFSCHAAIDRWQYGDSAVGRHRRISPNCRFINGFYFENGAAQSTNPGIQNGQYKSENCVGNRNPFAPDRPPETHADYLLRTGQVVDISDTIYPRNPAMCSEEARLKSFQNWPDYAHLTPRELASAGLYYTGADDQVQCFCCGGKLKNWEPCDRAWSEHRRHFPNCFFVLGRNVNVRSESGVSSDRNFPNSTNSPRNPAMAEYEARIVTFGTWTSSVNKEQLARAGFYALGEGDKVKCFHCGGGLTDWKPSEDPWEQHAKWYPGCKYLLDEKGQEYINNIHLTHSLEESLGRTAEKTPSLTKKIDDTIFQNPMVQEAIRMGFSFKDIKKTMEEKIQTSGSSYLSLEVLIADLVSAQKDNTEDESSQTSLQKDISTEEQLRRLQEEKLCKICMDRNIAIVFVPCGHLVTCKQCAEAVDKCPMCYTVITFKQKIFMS
T3 sequence (Q60989 whole entry): as above

B1: NRAGE peptide-YFP (NRAGE peptide DNA in pEYFP-N1) (peptide)
chain: PPAWQTPPAWQTPPAWQTPPAWQT
notes: four repeats of the final consensus hexapeptide PPAWQT of the NRAGE repeat domain; also called pep-Y; NRAGE peptide DNA-YFP; source: 293T, co-transfected, in fixed cells; not shown: EYFP, C-terminal, kept
With B1, the entries for the “average peak energy transfer efficiency (FRET)” value (with ECFP-XIAP; in experiment [1]) were 0.34% and 0.36%, respectively.

B2: NRAGE peptide-CFP (NRAGE peptide DNA in pECFP-N1) (peptide)
chain: PPAWQTPPAWQTPPAWQTPPAWQT
notes: four repeats of the final consensus hexapeptide PPAWQT of the NRAGE repeat domain; also called pep-C; NRAGE peptide DNA-CFP; source: 293T, co-transfected, in fixed cells; not shown: ECFP, C-terminal, kept
As to B2, the “average peak energy transfer efficiency (FRET)” value was 0.46% with EYFP-XIAP and 0.41% in experiment [2].

(Values after paper PMC3138748, “A Small Peptide Modeled after the NRAGE Repeat Domain Inhibits XIAP-TAB1-TAK1 Signaling for NF-κB Activation and Apoptosis in P19 Cells” (PLoS ONE, 2011).)
